Like-named read-outs stand apart in the source and are kept apart here. Numbered stars: 1 amine (or outer) side, 2 acyl side, 3 side chain; on linkers, the order of the positions; unused ones are H or OH. Square brackets hold non-standard residues; d marks the D form. Acd = acridonylalanine, O=C([C@H](Cc1ccc2[nH]c3ccccc3c(=O)c2c1)N[*:1])[*:2]
T1: activated RecA (RecA*), E. coli RecA polymerised on ssDNA with ATPγS (E. coli, UniProt P0A7G6 1-353)
T1 sequence (looked up): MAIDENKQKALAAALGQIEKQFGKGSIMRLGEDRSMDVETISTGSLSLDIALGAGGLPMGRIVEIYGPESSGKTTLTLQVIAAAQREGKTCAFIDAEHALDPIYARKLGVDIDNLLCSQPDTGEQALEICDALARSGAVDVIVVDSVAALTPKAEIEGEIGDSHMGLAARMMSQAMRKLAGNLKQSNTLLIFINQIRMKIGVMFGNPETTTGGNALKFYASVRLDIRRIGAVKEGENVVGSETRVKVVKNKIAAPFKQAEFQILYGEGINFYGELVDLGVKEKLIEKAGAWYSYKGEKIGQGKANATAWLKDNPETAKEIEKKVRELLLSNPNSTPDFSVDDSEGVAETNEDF


What was measured:
Test in all cases: fluorescence polarisation
[1] = biological target: T1, activated RecA (RecA*), E. coli RecA …
[2] = biological target: T1, activated RecA (RecA*), E. coli RecA …; remark: listed apart in the source
[3] = biological target: T1, activated RecA (RecA*), E. coli RecA …; remark: listed apart in the source

Binder	koff [1] [s⁻¹]	Kd [2] [µM]	koff [2] [s⁻¹]	kon [2] [M⁻¹ s⁻¹]	binding result [3]
LexA-S119A-Q161δ, full-length E. coli LexA with acridonylalanine (Acd) at position 161 (natural protein) MKALTARQQEVFDLIRDHISQTGMPPTRAEIAQRLGFRSPNAAEEHLKALARKGVIEIVSGASRGIRLLQEEEEGLPLVGRVAAGEPLLAQQHIEGHYQVDPSLFKPNADFLLRVSGMAMKDIGIMDGDLLAVHKTQDVRNGQVVVARIDDEVTVKRLKK[Acd]GNKVELLPENSEFKPIVVDLRQQSFTIEGLAVGVIRNGDWL	0.093	0.79	0.048	61000	
LexA-S119A, unlabeled catalytically inactive full-length LexA(1–202) (natural protein, E. coli, UniProt P0A7C2 1-202, looked up) MKALTARQQEVFDLIRDHISQTGMPPTRAEIAQRLGFRSPNAAEEHLKALARKGVIEIVSGASRGIRLLQEEEEGLPLVGRVAAGEPLLAQQHIEGHYQVDPSLFKPNADFLLRVSGMAMKDIGIMDGDLLAVHKTQDVRNGQVVVARIDDEVTVKRLKKQGNKVELLPENSEFKPIVVDLRQQSFTIEGLAVGVIRNGDWL					binds

Reference: paper PMC7230020 (ACS chemical biology, 2020)
